The target in experiment [1] is Epidermal growth factor receptor I (EGFR) (human) (UniProt P00533). Nature of the experiment: flow cytometry on MDA-MB-468 cells. (In flow cytometry, cells or beads pass a laser one at a time.)
For experiment [2] the target is unchanged. Nature of the experiment: flow cytometry saturation binding on EGFR positive cells.
Experiment [3] has the same target. Nature of the experiment: competitive radioligand binding on MDA-MB-468 cells; pre-blocking with 100-fold excess unlabeled 8709-scFv-Fc, tracer ^225Ac-8709-scFv-Fc at 50 nM.
In experiment [4] the target is T1, Epidermal growth factor receptor I (EGFR) (human, UniProt P00533 25-1210).
T1 construct: whole, on cells; MDA-MB-231 cells also carry EphA2; also called ErbB-1; HER1
Nature of the experiment: flow cytometry saturation binding on EGFR positive cells. As to the method:
(§1) Binding profile of immunoconjugates to MDA-MB468 (high EGFR expression) and MDA-MB-435 (EGFR negative) was studied using flow cytometry. […] A saturation binding curve was performed to determine the binding constants KD at which immunoconjugates bind to the cell.
(§2) In vitro binding to target receptor (e.g. EGFR) positive cells was performed for all immunoconjugates and compared with corresponding unconjugated antibody, and control IgG. […] Target antibodies, control IgG and their respective ADCs were titrated at a minimum of a 10-fold excess onto 1×10⁵ cells. The cell-compound reactions were incubated for 30 minutes at room temperature followed by 15 minutes on ice. Cells were washed and resuspended in a 1:50 dilution of PE or FITC labeled Goat F(ab′)2 fragment anti-human IgG (H+L) antibody (Beckman Coulter, IM0839) and incubated for 30 minutes on ice in the dark. Cells were washed and suspended in 2% FBS-PBS. Data was acquired using a Beckman Coulter Gallios flow cytometer and the results were analysed using FlowJoV10. The binding constant KD for each conjugate were generated using a non-linear regression curve fit with GraphPad prism 6.

The target of experiment [5] is T1, Epidermal growth factor receptor I …. Description: flow cytometry on MDA-MB-468 cells. As to the method: as §1, §2
For experiment [6] the target is unchanged. Nature of the experiment: flow cytometry saturation binding on MDA-MB-468 cells. As to the method: as §1, §2
For experiment [7] the target is unchanged. Nature of the experiment: saturation radioligand binding assay on MDA-MB-468 cells.

B1: 8709-scFv-Fc (Fc fusion, part only; not given: Linker, domain order, hinge and Fc, not shown: another chain or arm of the molecule; a dimerising Fc or GST; small tags and cut ends)
VH: EVQLVESGGGLVQPGGSLRLSCAASGFNLYSSSMHWVRQAPGKGLEWVASIYPYSGYTYYADSVKGRFTISADTSKNTAYLQMNSLRAEDTAVYYCARYPFGVSAYYAMDYWGQGTLVTVSS
VL: DIQMTQSPSSLSASVGDRVTITCRASQSVSSAVAWYQQKPGKAPKLLIYSASSLYSGVPSRFSGSRSGTDFTLTISSLQPEDFATYYCQQSYWLITFGQGTKVEIK
By Kd is commonly meant a measure of binding affinity in units of concentration. Low readings indicate tighter binding, high ones weaker binding. As to B1, the % binding in experiment [1] was above 90%. In experiment [2], the Kd is 1.1 nM. In experiment [3], this molecule returned a fold reduction in the binding of ^225Ac-8709-scFv-Fc to EGFR of 23.2 fold.

B2: 8709-scFv-Fc-PEG6-DM1 (Fc fusion)
VH: B1 VH
VL: DIQMTQSPSSLSASVGDRVTITCRASQSVSSAVAWYQQKPGKAPKLLIYSASSLYSGVPSRFSGSRSGTDFTLTISSLQPEDFATYYCQQSYWLITFGQGTKVEIKR
modifications: PEG6-DM1 conjugated via NHS (drug to antibody ratio 3.5), sites not stated
The molecule B2 gave a Kd in experiment [4] of 4.2 nM. The “% binding” value in experiment [5] is above 90%.

B3: Macropa-8709-scFv-Fc (Fc fusion)
VH: B1 VH
VL: B2 VL
modifications: macropa chelator conjugated via macropa-NCS, sites not stated
As to B3, the Kd in experiment [4] came out at 11.3 nM. For the same molecule, in experiment [6], the “fold higher KD value as compared to 8709-scFv-Fc” value came to 10.4 fold.

B4: ^225Ac-8709-scFv-Fc (Fc fusion)
VH: B1 VH
VL: B2 VL
modifications: macropa chelator with ^225Ac, sites not stated
On to B4, for which binding in experiment [7] was characterised by a dissociation constant (Kd) of 14.5 nM.

Source of the values: US20250127943A1 (published 2025).
